Results on 1 molecule are retold here after patent US20190083491, “SMALL MOLECULES INHIBITORS OF RAD51” (The University of Chicago, published 2019).

This series has as its target RAD51 (Homo sapiens, UniProt Q06609 Q06609:2-339). The series is described as follows: FP; 0.2 uM RAD51, 2.22 nM ssDNA, 2 mM ATP, 10 mM MgCl2, 30 mM NaCl, pH 7.5, 37 C; binding used to measure compound effects, no Kd given. The note with it: tags: human RAD51, purified as previously described (source inferred); label: 5'-Alexa488. Here is the method: In each well, RAD51 protein was combined with reaction buffer and varying concentrations of compound in DMSO in an initial volume of 40 μl and incubated at 37° C. for 40 minutes. […] The final reaction contained 4% DMSO, 0.2 μM RAD51, 30 mM NaCl, 2% glycerol, and 2.22 nM ssDNA substrate.

Chain of RAD51 (Q06609 2-339, one chain of several): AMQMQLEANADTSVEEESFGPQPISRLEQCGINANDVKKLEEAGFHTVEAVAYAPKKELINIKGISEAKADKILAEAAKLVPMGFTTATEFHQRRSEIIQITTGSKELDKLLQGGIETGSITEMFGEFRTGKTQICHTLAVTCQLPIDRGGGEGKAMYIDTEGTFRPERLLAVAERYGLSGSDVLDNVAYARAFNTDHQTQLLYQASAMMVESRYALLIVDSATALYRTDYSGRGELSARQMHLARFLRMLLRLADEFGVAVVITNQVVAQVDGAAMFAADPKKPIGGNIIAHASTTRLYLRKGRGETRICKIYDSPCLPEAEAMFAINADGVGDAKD

For the molecule TTTTTTTTTTTTTTTTTTTTTTTTTTTTTTTTTTTTTTTTTTTTT (ssDNA) [Alexa488-oligo-dT45], the binding result is “binds”.
